The supplement of paper PMC7877785
± gives the uncertainty stated by the source.

Test: self-splicing fitness, log relative to wild type (ln ratio); higher = more splicing; Tetrahymena group I intron in knt gene, E. coli kanamycin selection, DiMSum; sequences stand for … in CUCUCU…GGAGGGAAAAGUUAUCAGGCAUGCACCUGGUAGCUAGUCUUUAAACCAAUAGAUUGCAUCGGUUUAAAAGGCAAGACCGUCAAAUUGCGGGAAAGGGGUCAACAGCCGUUCAGUACCAAGUCUCAGGGGAAACUUUGAGAUGGCCUUGCAAAGGGUAUGGUAAUAAGCUGACGGACAUGGUCCUAACCACGCAGCCAAGUCCUAAGUCAACAGAUCUUCUGUUGAUAUGGAUGCAGUUCACAGACUAAAUGUCGGUCGGGGAAGAUGUAUUCUUCUCAUAAGAUAUAGUCGGACCUCUCCUUAAUGGGAGCUAGCGGAUGAAGUGAUGCAACACUGGAGCCGCUGGGAACUAAUUUGUAUGCGAAAGUAUAUUGAUUAGUUUUGGAGUACUCGUGGUCG
Outline: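 Six replicate transformations of E. coli BL21(DE3) with a pET-22b(+) library were grown overnight at 37°C or 30°C. The library randomised all eight P1ex-region intron nucleotides, the intron lying in the knt kanamycin-resistance gene, and plates were LB agar with or without 25 μg/mL kanamycin plus 100 μg/mL carbenicillin, 50 μM IPTG and 0.2% rhamnose. Pooled colonies were amplicon-sequenced on an Illumina HiSeq 2500, and fitness is the DiMSum error-weighted combination of wild-type-normalised replicate fold changes, kanamycin versus none.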

Sequence	self-splicing fitness (ln) (30 °C)	self-splicing fitness (ln) (37 °C)
UUCCAGCAAUAUUACGUGGA	-3.28 ± 0.24	-2.95 ± 0.26
UUCCAGCAAUAUUACGUUUA	-0.628 ± 0.083	-0.59 ± 0.075
UUCGAGCAAUAUUACGACCA	-2.28 ± 0.43	-1.33 ± 0.28
UUCGAGCAAUAUUACGACUA	0.544 ± 0.39	-1.15 ± 0.24
UUCGAGCAAUAUUACGAGGU	-2.94 ± 0.48	-1.52 ± 0.43
UUCGAGCAAUAUUACGCAUG	-1.2 ± 0.23	-2.21 ± 0.3
UUCGAGCAAUAUUACGCUCC	-3.27 ± 0.41	
UUCGAGCAAUAUUACGCUGC	-3.44 ± 0.44	
UUCGAGCAAUAUUACGGCCC	-1.75 ± 0.4	
UUCGAGCAAUAUUACGGGAG	-3.53 ± 0.2	-2.84 ± 0.22
UUCGAGCAAUAUUACGGGGU	-2.88 ± 0.35	
UUCGAGCAAUAUUACGGUAC	-3.39 ± 0.27	-2.62 ± 0.44
UUCGAGCAAUAUUACGGUUG	-3.78 ± 0.19	-2.47 ± 0.16
UUCGAGCAAUAUUACGUGCA	-2.18 ± 0.19	-1.4 ± 0.16
UUCGAGCAAUAUUACGUGCG	-3.18 ± 0.23	-2.18 ± 0.26
UUCGAGCAAUAUUACGUGUG	-2.52 ± 0.13	-1.59 ± 0.12
UUCGAGCAAUAUUACGUUAG	-4.22 ± 0.42	-3.37 ± 0.3
UUCGAGCAAUAUUACGUUGA	-2.77 ± 0.26	-2 ± 0.21
UUCUAGCAAUAUUACGAACC		-1.8 ± 0.33
UUCUAGCAAUAUUACGAACG	-3.61 ± 0.36	-1.15 ± 0.27
UUCUAGCAAUAUUACGACGU	-1.89 ± 0.12	-1.12 ± 0.1
UUCUAGCAAUAUUACGACUC	-3.11 ± 0.31	-0.392 ± 0.14
UUCUAGCAAUAUUACGAGAA	-2.54 ± 0.29	-2.11 ± 0.29
UUCUAGCAAUAUUACGAGCA	-0.992 ± 0.089	-0.124 ± 0.085
UUCUAGCAAUAUUACGAUAG		-2.05 ± 0.36
UUCUAGCAAUAUUACGAUCU	-2.84 ± 0.34	-2.52 ± 0.27

Sequence	self-splicing fitness (ln) (30 °C)	self-splicing fitness (ln) (37 °C)
UUCUAGCAAUAUUACGAUGC	-2.12 ± 0.3	-2.86 ± 0.38
UUCUAGCAAUAUUACGAUUG	-3.24 ± 0.31	-1.94 ± 0.21
UUCUAGCAAUAUUACGCAAU	-2.27 ± 0.22	-2.21 ± 0.32
UUCUAGCAAUAUUACGCACC	-2.54 ± 0.18	-1.94 ± 0.23
UUCUAGCAAUAUUACGCAGA	-2.04 ± 0.32	-1.1 ± 0.23
UUCUAGCAAUAUUACGCGUA	-1.15 ± 0.25	-0.575 ± 0.21
UUCUAGCAAUAUUACGCGUU	-2.47 ± 0.15	-1.9 ± 0.13
UUCUAGCAAUAUUACGCUCU	-1.9 ± 0.15	-1.77 ± 0.15
UUCUAGCAAUAUUACGCUUG	-4.24 ± 0.33	-2.67 ± 0.22
UUCUAGCAAUAUUACGGAGG	-3.17 ± 0.34	
UUCUAGCAAUAUUACGGAUC	-2.3 ± 0.21	-0.989 ± 0.31
UUCUAGCAAUAUUACGGCGA	-0.698 ± 0.14	0.493 ± 0.18
UUCUAGCAAUAUUACGGGAU	-3.72 ± 0.29	-2.37 ± 0.3
UUCUAGCAAUAUUACGGUCG	-0.638 ± 0.067	0.00892 ± 0.09
UUCUAGCAAUAUUACGGUCU		-3.7 ± 0.36
UUCUAGCAAUAUUACGGUUU	-2.05 ± 0.11	-1.52 ± 0.12
UUCUAGCAAUAUUACGUAAC	-3.19 ± 0.33	-1.32 ± 0.27
UUCUAGCAAUAUUACGUAGU		-1.6 ± 0.24
UUCUAGCAAUAUUACGUAUA	-1.28 ± 0.19	-0.787 ± 0.25
UUCUAGCAAUAUUACGUUGU	-3.15 ± 0.16	-2.75 ± 0.18
UUGAAGCAAUAUUACGAAGG	-1.42 ± 0.13	-0.248 ± 0.17
UUGAAGCAAUAUUACGACAA	0.222 ± 0.087	0.511 ± 0.12
UUGAAGCAAUAUUACGAGCA	-0.381 ± 0.12	0.224 ± 0.14
UUGAAGCAAUAUUACGCCAU	-1.71 ± 0.086	-1.56 ± 0.12
UUGAAGCAAUAUUACGCCGC		-2.1 ± 0.43
UUGAAGCAAUAUUACGCGGA	-1.12 ± 0.12	-0.506 ± 0.14

Sequence	self-splicing fitness (ln) (30 °C)	self-splicing fitness (ln) (37 °C)
UUGAAGCAAUAUUACGCUCC	-4.04 ± 0.29	-3.02 ± 0.31
UUGAAGCAAUAUUACGGAAU	-3.36 ± 0.14	-1.15 ± 0.12
UUGAAGCAAUAUUACGGACU	0.0826 ± 0.16	0.0377 ± 0.12
UUGAAGCAAUAUUACGGCGU	-0.215 ± 0.11	0.00688 ± 0.13
UUGAAGCAAUAUUACGUCGU	-1.04 ± 0.074	-0.397 ± 0.11
UUGAAGCAAUAUUACGUGUA	-1.7 ± 0.053	-1.25 ± 0.074
UUGCAGCAAUAUUACGAUGU	-3.3 ± 0.16	-3.09 ± 0.3
UUGCAGCAAUAUUACGAUUU	-2.64 ± 0.14	-1.22 ± 0.13
UUGCAGCAAUAUUACGCAAU	-3.95 ± 0.42	-1.86 ± 0.14
UUGCAGCAAUAUUACGCCCG	-0.555 ± 0.18	-1.07 ± 0.18
UUGCAGCAAUAUUACGCGCC	-2.28 ± 0.44	
UUGCAGCAAUAUUACGCGGG	-4.61 ± 0.39	-2.03 ± 0.21
UUGCAGCAAUAUUACGCUGC	-3.93 ± 0.29	-2.97 ± 0.38
UUGCAGCAAUAUUACGCUUU	-2.64 ± 0.12	-2.11 ± 0.15
UUGCAGCAAUAUUACGGACC	-2.34 ± 0.27	-2 ± 0.26
UUGCAGCAAUAUUACGGCCU	-1.03 ± 0.095	-0.864 ± 0.18
UUGCAGCAAUAUUACGGUAU	-1.86 ± 0.11	-1.63 ± 0.14
UUGCAGCAAUAUUACGGUGU	-4.16 ± 0.21	-2.72 ± 0.18
UUGCAGCAAUAUUACGUAUC	-3.83 ± 0.16	-2.4 ± 0.15
UUGCAGCAAUAUUACGUAUU	-2.57 ± 0.14	-1.43 ± 0.15
UUGCAGCAAUAUUACGUCGC	-3.09 ± 0.28	-2.16 ± 0.35
UUGCAGCAAUAUUACGUCGG	-0.191 ± 0.089	-0.117 ± 0.11
UUGCAGCAAUAUUACGUGAG	-0.139 ± 0.078	-0.302 ± 0.099
UUGCAGCAAUAUUACGUGGU	-2.14 ± 0.16	-2.76 ± 0.28
UUGCAGCAAUAUUACGUUUC	-3.59 ± 0.27	-3.17 ± 0.34
UUGGAGCAAUAUUACGACAG	-1.57 ± 0.15	-1.23 ± 0.18

Sequence	self-splicing fitness (ln) (30 °C)	self-splicing fitness (ln) (37 °C)
UUGGAGCAAUAUUACGACCA	-3.12 ± 0.48	-1.34 ± 0.35
UUGGAGCAAUAUUACGAGUA		-2.45 ± 0.48
UUGGAGCAAUAUUACGAUAU		-2.49 ± 0.32
UUGGAGCAAUAUUACGCAUU	-1.87 ± 0.33	
UUGGAGCAAUAUUACGCUCA	-1.16 ± 0.15	-1.53 ± 0.24
UUGGAGCAAUAUUACGGACC		-2.55 ± 0.33
UUGGAGCAAUAUUACGGACG	-3.11 ± 0.32	-1.04 ± 0.34
UUGGAGCAAUAUUACGGCUA	-1.23 ± 0.26	-1.21 ± 0.41
UUGGAGCAAUAUUACGGCUU	-1.18 ± 0.46	-2.15 ± 0.48
UUGGAGCAAUAUUACGGGCC		-1.33 ± 0.42
UUGGAGCAAUAUUACGGGGC	-3.04 ± 0.28	-3.26 ± 0.47
UUGGAGCAAUAUUACGGGGU	-4.02 ± 0.4	-2.44 ± 0.33
UUGGAGCAAUAUUACGGUUC	-2.38 ± 0.2	-2.86 ± 0.3
UUGGAGCAAUAUUACGUAAA	-2.9 ± 0.29	-0.99 ± 0.25
UUGGAGCAAUAUUACGUACA		0.204 ± 0.28
UUGGAGCAAUAUUACGUCAA	-2.19 ± 0.25	-0.538 ± 0.19
UUGGAGCAAUAUUACGUGUG	-3.71 ± 0.2	-2.38 ± 0.14
UUGGAGCAAUAUUACGUUAA	-2.09 ± 0.25	-1.91 ± 0.25
UUGGAGCAAUAUUACGUUCA	-2.45 ± 0.4	-1 ± 0.31
UUGGAGCAAUAUUACGUUGA	-3.57 ± 0.3	-0.895 ± 0.26
UUGGAGCAAUAUUACGUUGC		-1.44 ± 0.45
UUGUAGCAAUAUUACGACCA	-0.463 ± 0.16	-0.51 ± 0.17
UUGUAGCAAUAUUACGAGGC	-3.07 ± 0.27	-1.77 ± 0.31
